In patent US20230235013A1 (MABSOLVE, published 2023):
Substitutions are numbered along the chain they refer to. In names and notes the source's numbering stands.

T1: human FcγRIIA (R131, Sino Biological Cat. No. 10374-H08H) (human, UniProt P12318 34-218)
T1 construct: bought; also called human FcγRIIa R131 allele; FcγRII allele R131
T1 sequence (looked up): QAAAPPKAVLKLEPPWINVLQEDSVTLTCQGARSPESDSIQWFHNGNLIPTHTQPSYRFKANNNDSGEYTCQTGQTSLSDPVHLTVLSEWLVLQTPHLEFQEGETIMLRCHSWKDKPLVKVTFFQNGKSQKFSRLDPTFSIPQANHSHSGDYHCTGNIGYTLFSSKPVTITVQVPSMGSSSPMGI

B1: anti-CD20 human IgG1 L234Q/L235S/G236R (antibody)
heavy: QVQLQQPGAELVKPGASVKMSCKASGYTFTSYNMHWVKQTPGRGLEWIGAIYPGNGDTSYNQKFKGKATLTADKSSSTAYMQLSSLTSEDSAVYYCARSTYYGGDWYFNVWGAGTTVTVSSASTKGPSVFPLAPSSKSTSGGTAALGCLVKDYFPEPVTVSWNSGALTSGVHTFPAVLQSSGLYSLSSVVTVPSSSLGTQTYICNVNHKPSNTKVDKKVEPKSCDKTHTCPPCPAPEQSRGPSVFLFPPKPKDTLMISRTPEVTCVVVDVSHEDPEVKFNWYVDGVEVHNAKTKPREEQYNSTYRVVSVLTVLHQDWLNGKEYKCKVSNKALPAPIEKTISKAKGQPREPQVYTLPPSRDELTKNQVSLTCLVKGFYPSDIAVEWESNGQPENNYKTTPPVLDSDGSFFLYSKLTVDKSRWQQGNVFSCSVMHEALHNHYTQKSLSLSPGK
light: QIVLSQSPAILSASPGEKVTMTCRASSSVSYIHWFQQKPGSSPKPWIYATSNLASGVPVRFSGSGSGTSYSLTISRVEAEDAATYYCQQWTSNPPTFGGGTKLEIKRTVAAPSVFIFPPSDEQLKSGTASVVCLLNNFYPREAKVQWKVDNALQSGNSQESVTEQDSKDSTYSLSSTLTLSKADYEKHKVYACEVTHQGLSSPVTKSFNRGEC
notes: also called 10.77; copies: 2 + 2
B2: anti-CD20 human IgG1 L234Q/L235V/G236R (antibody)
heavy: B1 heavy with S239V
light: B1 light
B3: anti-CD20 human IgG1 L234T/L235K/G236R (antibody)
heavy: B1 heavy with Q238T, S239K
light: B1 light
notes: also called 2-58
B4: anti-CD20 human IgG1 L234R/L235H/G236R (antibody)
heavy: B1 heavy with Q238R, S239H
light: B1 light
notes: also called 2-38
B5: anti-CD20 human IgG1 L234S/L235H/G236R (antibody)
heavy: B1 heavy with Q238S, S239H
light: B1 light
notes: also called 2-48
B6: anti-CD20 human IgG1 L234T/L235R/G236R (antibody)
heavy: B1 heavy with Q238T, S239R
light: B1 light
notes: also called 2-61
B7: anti-CD20 human IgG1 L234R/L235E/G236R (antibody)
heavy: B1 heavy with Q238R, S239E
light: B1 light
notes: also called 2-37
B8: anti-CD20 human IgG1 L234T/L235Q/G236R (antibody)
heavy: B1 heavy with Q238T, S239Q
light: B1 light
notes: also called 2-60
B9: anti-CD20 human IgG1 L234T/L235S/G236R (antibody)
heavy: B1 heavy with Q238T
light: B1 light
notes: also called 2-62
B10: anti-CD20 human IgG2 L234Q/L235S (antibody)
heavy: QVQLQQPGAELVKPGASVKMSCKASGYTFTSYNMHWVKQTPGRGLEWIGAIYPGNGDTSYNQKFKGKATLTADKSSSTAYMQLSSLTSEDSAVYYCARSTYYGGDWYFNVWGAGTTVTVSSASTKGPSVFPLAPCSRSTSESTAALGCLVKDYFPEPVTVSWNSGALTSGVHTFPAVLQSSGLYSLSSVVTVPSSNFGTQTYTCNVDHKPSNTKVDKTVERKCCVECPPCPAPPQSGPSVFLFPPKPKDTLMISRTPEVTCVVVDVSHEDPEVQFNWYVDGVEVHNAKTKPREEQFNSTFRVVSVLTVVHQDWLNGKEYKCKVSNKGLPAPIEKTISKTKGQPREPQVYTLPPSREEMTKNQVSLTCLVKGFYPSDIAVEWESNGQPENNYKTTPPMLDSDGSFFLYSKLTVDKSRWQQGNVFSCSVMHEALHNHYTQKSLSLSPGK
light: B1 light
notes: also called 11.144; copies: 2 + 2
B11: anti-CD20 human IgG4 L234Q/L235S/G236R (with S228P) (antibody)
heavy: QVQLQQPGAELVKPGASVKMSCKASGYTFTSYNMHWVKQTPGRGLEWIGAIYPGNGDTSYNQKFKGKATLTADKSSSTAYMQLSSLTSEDSAVYYCARSTYYGGDWYFNVWGAGTTVTVSSASTKGPSVFPLAPCSRSTSESTAALGCLVKDYFPEPVTVSWNSGALTSGVHTFPAVLQSSGLYSLSSVVTVPSSSLGTKTYTCNVDHKPSNTKVDKRVESKYGPPCPPCPAPEQSRGPSVFLFPPKPKDTLMISRTPEVTCVVVDVSQEDPEVQFNWYVDGVEVHNAKTKPREEQFNSTYRVVSVLTVLHQDWLNGKEYKCKVSNKGLPSSIEKTISKAKGQPREPQVYTLPPSQEEMTKNQVSLTCLVKGFYPSDIAVEWESNGQPENNYKTTPPVLDSDGSFFLYSRLTVDKSRWQEGNVFSCSVMHEALHNHYTQKSLSLSLGK
light: B1 light
notes: copies: 2 + 2
B12: anti-CD20 human IgG1 L234A/L235A/P329G (LALAPG reference) (antibody)
heavy: not shown
light: B1 light
notes: also called 2-66; copies: 2 + 2
B13: anti-CD20 human IgG1 L234Q/L235S/G236R/M252Y/S254T/T256E (antibody)
heavy: B1 heavy with M256Y, S258T, T260E
light: B1 light
notes: also called 10.145; copies: 2 + 2
B14: anti-CD20 human IgG1 L234S/L235V/G236R (antibody)
heavy: B1 heavy with Q238S, S239V
light: B1 light
notes: also called 2-53; copies: 2 + 2
B15: anti-CD20 human IgG1 L234Q/L235S/G236R/T250Q/M428L (antibody)
heavy: B1 heavy with T254Q, M432L
light: B1 light
notes: also called 10.146; copies: 2 + 2

molecular target: T2, Histidine-tagged recombinant human FcγRI (CD64) (human, UniProt P12314 16-288); assay: SPR, culture supernatant, captured His-FcγRI;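 further: biacore T200 SPR at 25 °C, anti-His capture, supernatants of HEK293 cells expressing IgG1 Fc variants injected 1 min, reference-subtracted response read 55 s after injection start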
T2 construct: bought; also called Sino Biological Cat. No. 12056-H08H

Mean binding response [RU]	Binder
11.9	B1

molecular target: T3, Histidine-tagged recombinant human FcγRI (CD64) (human, UniProt P12314 16-288, limits assumed); assay: SPR, His-FcγRI captured; mean;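 further: biacore T200 SPR at 25 °C, anti-His surface capturing FcγRI, Fc-variant antibodies injected at 100 µg/mL for 1 min, signal near injection end minus third buffer blank, three repeats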
T3 construct: bought

Corrected response (RU), Mean [RU]	Binder
2.5	B2
2.7	B3
0.6	B4
1.8	B5
1.8	B6
2.4	B7
3	B8
1.4	B9

molecular target: T3, Histidine-tagged recombinant human …; assay: SPR, His-FcγRI captured; Expt 1;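 further: SPR at 25 °C on anti-His antibody chip capturing FcγRI, Fc-variant antibodies injected at 100 µg/mL for 1 min, signal near end of injection minus buffer blank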

Corrected response (RU)	Binder
0.5	B2
1.1	B3
-1.2	B4
0.4	B5
0.2	B6
0.9	B7
2.2	B8
0.8	B9

molecular target: T4, human FcγRIIIB (NA2 allotype, Sino Biological Cat. No. 11046-H08H) (human, UniProt O75015 17-200); assay: SPR, captured His-receptor
T4 construct: bought; also called human FcγRIIIb NA2 allele

binding result	Binder
no binding (tested: 100 µg/mL)	B1
no binding (tested: 100 µg/mL)	B10
no binding (tested: 100 µg/mL)	B11
no binding (tested: 100 µg/mL)	B12
no binding (tested: 100 µg/mL)	B13
no binding (tested: 100 µg/mL)	B14
no binding (tested: 100 µg/mL)	B15

molecular target: T2, Histidine-tagged recombinant human …; assay: SPR, captured His-receptor

binding result	Binder
binds	B10
no binding (tested: 100 µg/mL)	B11
no binding (tested: 100 µg/mL)	B13
no binding (tested: 100 µg/mL)	B14
no binding (tested: 100 µg/mL)	B15

molecular target: T1, human FcγRIIA (R131, Sino Biological …); assay: SPR, captured His-receptor

binding result	Binder
no binding (tested: 100 µg/mL)	B1
no binding (tested: 100 µg/mL)	B10
no binding (tested: 100 µg/mL)	B11
no binding (tested: 100 µg/mL)	B12
no binding (tested: 100 µg/mL)	B13
no binding (tested: 100 µg/mL)	B14
no binding (tested: 100 µg/mL)	B15

molecular target: T3, Histidine-tagged recombinant human …; assay: SPR, His-FcγRI captured; Expt 2;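 further: biacore T200 SPR at 25 °C, Fc-variant antibodies at 100 µg/mL flowed 1 min over anti-His-captured receptor, signal read near injection end minus third buffer blank; antibody analyte injected at 100 µg/mL for 1 min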

Corrected response (RU)	Binder
2.5	B2
2.4	B3
0.7	B4
1.1	B5
1.6	B6
1.8	B7
2.3	B8
0.9	B9

molecular target: T5, human FcγRIIIA (F158) (human, UniProt P08637 17-208); assay: SPR, FcγRIIIA captured; further: test concentration or dose not given here
T5 construct: bought; F158 allele
T5 sequence (P08637 17-208 limits assumed): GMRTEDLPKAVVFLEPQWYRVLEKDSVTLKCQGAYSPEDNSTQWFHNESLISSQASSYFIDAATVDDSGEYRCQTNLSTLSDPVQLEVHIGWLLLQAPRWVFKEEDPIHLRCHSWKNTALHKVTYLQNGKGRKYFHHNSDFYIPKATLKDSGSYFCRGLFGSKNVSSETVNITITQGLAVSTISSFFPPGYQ

Corrected response (RU)	Binder
4.7	B2
3.5	B3
3.9	B4
3.7	B5
3.8	B6
4.6	B7
3	B8
2.5	B9

molecular target: T3, Histidine-tagged recombinant human …; assay: SPR, His-FcγRI captured; Expt 3;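 further: biacore T200 SPR at 25 °C, Fc-variant antibodies at 100 µg/mL flowed 1 min over anti-His-captured FcγRI, signal taken just before injection end minus a buffer blank cycle; antibody analyte injected at 100 µg/mL for 1 min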

Corrected response (RU)	Binder
4.5	B2
4.5	B3
2.3	B4
3.9	B5
3.5	B6
4.6	B7
4.5	B8
2.5	B9
